The record followed here is patent US20250082758A1.

Assay [1] addresses human insulin receptor isoform B (human) (UniProt P06213). The assay can be described thus: cell-based or functional assay.
Assay [2] has the same target. The assay can be described thus: SPA competition with [125I]-labelled human insulin, membranes of CHO cells overexpressing IR.

Bridge positions count the residues as written; N and C are the ends. Ends that are not written are not given here. I, II: the chains in the order shown. * marks the point of attachment. Formula (I) = human serum albumin binder 2-[2-[2-[2-[2-[2-[2-(carbonylmethoxy)ethoxy]ethylamino]-2-oxo-ethoxy]ethoxy]ethylamino]-2-oxo-ethoxy]-5-(18-carboxyoctadecyl)benzoic acid, amide to Lys epsilon-N, O=C(O)CCCCCCCCCCCCCCCCCCc1ccc(OCC(=O)NCCOCCOCC(=O)NCCOCCOCC(=O)*)c(C(=O)O)c1

Chain of UniProt P06213 (P06213 28-1382): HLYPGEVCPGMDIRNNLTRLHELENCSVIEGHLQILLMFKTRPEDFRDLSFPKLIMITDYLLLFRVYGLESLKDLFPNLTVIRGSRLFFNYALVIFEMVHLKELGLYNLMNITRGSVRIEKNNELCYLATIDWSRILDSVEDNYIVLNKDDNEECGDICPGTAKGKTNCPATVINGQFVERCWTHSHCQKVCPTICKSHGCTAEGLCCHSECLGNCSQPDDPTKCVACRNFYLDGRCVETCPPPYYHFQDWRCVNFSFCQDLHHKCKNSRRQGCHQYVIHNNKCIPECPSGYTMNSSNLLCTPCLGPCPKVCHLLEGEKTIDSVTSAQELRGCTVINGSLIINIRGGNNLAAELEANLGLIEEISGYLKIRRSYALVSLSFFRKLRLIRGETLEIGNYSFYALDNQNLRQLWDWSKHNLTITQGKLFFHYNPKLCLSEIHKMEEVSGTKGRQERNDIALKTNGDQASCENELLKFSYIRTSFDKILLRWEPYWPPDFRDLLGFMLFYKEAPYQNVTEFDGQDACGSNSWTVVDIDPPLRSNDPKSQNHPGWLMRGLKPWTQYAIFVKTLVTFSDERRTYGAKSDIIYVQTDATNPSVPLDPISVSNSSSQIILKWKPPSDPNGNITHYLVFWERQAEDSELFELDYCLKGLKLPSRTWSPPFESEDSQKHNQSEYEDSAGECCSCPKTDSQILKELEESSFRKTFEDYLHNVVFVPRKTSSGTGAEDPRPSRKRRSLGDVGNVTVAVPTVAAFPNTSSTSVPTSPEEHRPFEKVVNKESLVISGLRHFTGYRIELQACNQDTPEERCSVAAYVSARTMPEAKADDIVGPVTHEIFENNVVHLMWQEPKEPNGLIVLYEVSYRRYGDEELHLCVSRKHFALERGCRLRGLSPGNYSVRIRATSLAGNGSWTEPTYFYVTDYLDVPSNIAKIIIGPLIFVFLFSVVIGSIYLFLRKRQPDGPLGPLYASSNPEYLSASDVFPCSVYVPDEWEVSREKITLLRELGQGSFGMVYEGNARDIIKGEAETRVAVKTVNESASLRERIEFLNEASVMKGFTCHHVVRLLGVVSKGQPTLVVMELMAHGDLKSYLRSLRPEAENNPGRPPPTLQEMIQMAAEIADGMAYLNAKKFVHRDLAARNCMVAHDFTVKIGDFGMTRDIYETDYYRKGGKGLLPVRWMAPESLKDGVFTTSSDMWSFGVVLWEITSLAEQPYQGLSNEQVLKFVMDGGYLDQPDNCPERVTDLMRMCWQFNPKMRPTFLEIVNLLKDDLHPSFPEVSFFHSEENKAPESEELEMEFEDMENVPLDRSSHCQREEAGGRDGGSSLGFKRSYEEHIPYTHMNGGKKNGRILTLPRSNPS

B1: Conjugate 1: Arg(A5)Glu(A14)Arg(A18)Gly(A21)Glu(B16)His(B25)Arg(B27)Arg(B31)-insulin with the human serum albumin binder of Formula (I) on Lys(B29) (ligand)
chain 1: GIVERCCTSICSLEQLERYCG
chain 2: FVNQHLCGSHLVEALELVCGERGFHYRPK(Formula (I))TR
modifications: disulfide I:6-I:11, I:20-II:19, I:7-II:7
With B1, the Autophosphorylation activity (relative to human insulin) (relative to human insulin) in assay [1] stood at 0.07. In assay [2], the Insulin receptor B binding affinity relative to human insulin was under 2% and the Insulin-receptor binding affinity relative to human insulin (relative to human insulin) worked out at 0.01.
